In US11584938B2, “Plant EPSPS mutant containing L195P and S247G mutations and encoding gene and use thereof” (GEVOTO LLC, priority 2017, dated 2023):
Positions count from the first letter of the chain named. Where “and” joins values, the source holds several entries; their conditions need not be identical. Identical values can stand only once.

B1: R5: rice EPSPS mutant, SEQ ID NO: 38, mutations S267(247)G and P116(101)S (protein)
chain: MASNAAAAAAKAEEIVLQPIREISGAVQLPGSKSLSNRILLLSALSEGTTVVDNLLNSEDVHYMLEALKALGLSVEADKVAKRAVVVGCGGKFPVEKDAKEEVQLFLGNAGTAMRSLTAAVTAAGGNATYVLDGVPRMRERPIGDLVVGLKQLGADVDCFLGTECPPVRVKGIGGLPGGKVKLSGSISSQYLSALLMAAPLALGDVEIEIIDKLISIPYVEMTLRLMERFGVKAEHSDSWDRFYIKGGQKYKSPGNAYVEGDASSAGYFLAGAAITGGTVTVQGCGTTSLQGDVKFAEVLEMMGAKVTWTDTSVTVTGPPREPYGKKHLKAVDVNMNKMPDVAMTLAVVALFADGPTAIRDVASWRVKETERMVAIRTELTKLGASVEEGPDYCIITPPEKLNITAIDTYDDHRMAMAFSLAACADVPVTIRDPGCTRKTFPNYFDVLSTFVRN
B2: R6: rice EPSPS mutant, SEQ ID NO: 40, mutations S267(247)G, L214(195)P and P116(101)S (protein)
chain: B1 chain with L214P

Tested on: transgenic rice plants
Experiment: glyphosate resistance of the EPSPS mutant in transgenic rice plants sprayed with Roundup 41% ammonium glyphosate
Assay type: in vivo, rice (Nipponbare)
How it was run: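 EPSPS mutant genes were cloned into pGVP1 and introduced into Nipponbare rice embryo-derived calluses via Agrobacterium EHA105 (OD 0.2, 10 min infection, 2–3 days co-culture at 25 °C in the dark). Calluses went through recovery, two 14-day screening rounds at 30 °C, two differentiation rounds and rooting to regenerate transgenic plants.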

[1] = 1× dosage 1060 g/hectare glyphosate sprayed, recorded on 10th day
[2] = 2× dosage 2120 g/hectare sprayed to plants surviving 1×, recorded 10 days later
[3] = 5× dosage 5300 g/hectare sprayed to plants surviving 2×, recorded 10 days later
[4] = 20× dosage 21200 g/hectare sprayed to plants surviving 5×, recorded 10 days later

Molecule | %++&+++ (percentage of plant having medium and high glyphosate resistance to the total number of plants observed) [1] [%] | number of plants denoted by + (low glyphosate resistance) [1] | number of plants denoted by ++ (medium glyphosate resistance) [1] | number of plants denoted by +++ (high glyphosate resistance) [1] | number of plants denoted by − (no glyphosate resistance) [1] | glyphosate resistance / survival of the rice transformed by the EPSPS, in words (1× glyphosate dosage) | number of plants denoted by + (low glyphosate resistance) [2] | number of plants denoted by ++ (medium glyphosate resistance) [2] | number of plants denoted by +++ (high glyphosate resistance) [2] | number of plants denoted by − (no glyphosate resistance) [2] | glyphosate resistance / survival of the rice transformed by the EPSPS, in words (2× glyphosate dosage) | &++&+++ (percentage of plant having medium and high glyphosate resistance to the total number of plants observed) [3] [%] | number of plants denoted by + (low glyphosate resistance) [3] | number of plants denoted by ++ (medium glyphosate resistance) [3] | number of plants denoted by +++ (high glyphosate resistance) [3] | number of plants denoted by − (no glyphosate resistance) [3] | &++&+++ (percentage of plant having medium and high glyphosate resistance to the total number of plants observed) [4] | number of plants denoted by + (low glyphosate resistance) [4] | number of plants denoted by ++ (medium glyphosate resistance) [4] | number of plants denoted by +++ (high glyphosate resistance) [4] | also measured
B1 | 84.2 | 0 | 6 | 10 | 3 | had relatively high resistance to glyphosate | 3 | 6 | 4 | 6 | had relatively high resistance to glyphosate | 42.1 | 3 | 8 | 0 | 8 | 0.0% | 8 | 0 | 0 | %++&+++ (percentage of plant having medium and high glyphosate resistance to the total number of plants observed) [2]: 63.3%; number of plants denoted by − (no glyphosate resistance) [4]: 11
B2 | 70.0 | 7 | 3 | 18 | 2 | had relatively high resistance to glyphosate | 3 | 1 | 18 | 8 | had relatively high resistance to glyphosate | 63.3 | 0 | 6 | 13 | 11 | 63.38% and 63.3% | 0 | 11 | 8 | number of plants denoted by − (no glyphosate resistance) [4]: 11
